Reference: patent US20220073643A1 (NANJING GENSCRIPT BIOTECH, published 2022)
Positions count from the first letter of the chain named.

B1: chimeric 194D3B2 (antibody, human IgG1, kappa, V domains shown)
VH: QAYLQQSGAELVRSGASVKMSCKASGYPFTSYNMHWVKQTPGQGLEWVGYIYPGNGGTNYNQKFRDKATLTADTSSSTAYMQISRLTSDDSAVYFCLTGRGFAYWGQGTLVTVSA
VL: DIVMTQSPSSLIVTPGERVTMSCKSSQSLLNSGNQKNYLTWYQQKPGQPPKLLIYRASTRESGVPDRFTGSGSGTDFTLTISSVQAEDLAVYYCQNDYSYPLTFGIGTKLELKR
notes: chimeric, human IgG1/kappa constant regions
B2: chimeric 203A6C9 (antibody, human IgG1, kappa, V domains shown)
VH: QVQLKQSGPGLVQPSQSLSITCTVSGFSLTRYGVHWVRQSPGKGLEWLGVIWSGGNTDYNAAFISRLNIRKDNSKSQVFFKMNSLKPNDTAIYYCARAAYFGNSFDYWGQGTTLTVSS
VL: B1 VL with I12P, P15A, R18K, R56W, E61D, D97N, S99I, I106A
notes: as for B1
B3: chimeric 252F1B10 (antibody, human IgG1, kappa, V domains shown)
VH: QAYLQQSGAELVRSGASVKMSCKASGYTFTSHNMHWVKQTPGQGLEWIGYIYPGNGGTNYNQKFKGKATLTADTSSSTAYMQINSLTSEDSAVYFCTRDYYGNSFAYWGQGTLVTVSA
VL: B1 VL with I12T, V13E, T14K, P15A, T20S, L30F, R56W, S99R, L102F, I106A
notes: as for B1
B4: chimeric 257G7B9 (antibody, human IgG1, kappa, V domains shown)
VH: B3 VH with M34L, G57N, N84S
VL: DIVMTQSPSSLTEKAGERVSMSCKSSQSLFNSGNQKNYLTWYQQKPGQPPKLLIYWASTRESGVPDRFTGSGSGTDFTLTISSVQAEDLAVYYCQNNYWFPFTFGAGTKLELKR
notes: as for B1
B5: chimeric 250F4G4 (antibody, human IgG1, kappa, V domains shown)
VH: B3 VH with G57R, N84S
VL: B4 VL with A15V, N97D, F100Y
notes: as for B1
B6: chimeric 222B6G5 (antibody, human IgG1, kappa, V domains shown)
VH: QTYLQQSGAELVRSGASVKMSCKASGYTFTSYNIHWVKQTPGQGLEWIGYISPGNGGTYYNLKFKDKATLTTATSSSTAYMQISSLTSEDSAVYFCATGRGFAYWGQGTLVTVSA
VL: B1 VL with I12T, R18K, L30F, T40I, E61D, S83N, I106A
notes: as for B1
B7: chimeric 257B1G9 (antibody, human IgG1, kappa, V domains shown)
VH: B3 VH with N84S
VL: B4 VL with K14R, N97D, W99R, F100Y
notes: as for B1
B8: chimeric 201F4H6 (antibody, human IgG1, kappa, V domains shown)
VH: QVQLKESGPGLVAPSQSLSITCTVSGFSLTSYGVSWVRQPPGKGLECLGVIWAGGNTNYNSALMSRLSISKDKSKSQVFLKMNSLQTDDTAMYYCARVYYGNAMDYWGQGTSVTVSS
VL: DIVMTQSPSSLTVTAGEKVTMSCKSSQSLLNSGNQKSYLTWYQQRPGQPPKLLIYWASTRESGVPDRFTGSGSGTDFTLTISSVQAEDLAVYFCQNVYFFPFTFGSGTKLETKR
notes: as for B1
B9: chimeric 182D10F1 (antibody, human IgG1, kappa, V domains shown)
VH: B1 VH with P28T, T30S, V48I, R65K, D66G, R85S, D89E, A103T
VL: B1 VL with I12T, P15A, R18K, S22N, L30F, I106V
notes: as for B1
B10: chimeric 234B9D4 (antibody, human IgG1, kappa, V domains shown)
VH: EIQLQQSGPDLMKPGSSVKISCTASGYSFTSYYIHWVKQSHGKTLEWIGYIDPFNGGTRYNQKFEGKAALTVDKSSTTAYMHLTSLTSDDSAVYYCASLRFFTYWGQGTLVTVSA
VL: B1 VL with I12T, P15A, R18K, S22T, K36E, Y55S, E61Q, I106A
notes: as for B1
B11: chimeric 241H10A1 (antibody, human IgG1, kappa, V domains shown)
VH: QVQLQQSGAELVKPGASVKLSCKASGYTFTSFGINWLRQRPEQGLEWIGWIFPGDGNSKYNENFKGKATLTTDKSSSTAYMQVTRLTSEDSAVYFCARFYYGNSFANWGQGTLVTVSA
VL: B1 VL with I12T, P15A, R18K, R56W, S58A, S99F, L102F, I106G
notes: as for B1
B12: humanized 232C5E3-VL1.1 + VH1 (antibody, human IgG1, kappa, V domains shown)
VH: QVQLVQSGAEVKKPGASVKVSCKASGYTFTSHNIHWVRQAPGQRLEWMGYIYPGNGGTNYNQKFKARVTITRDTSASTAYMELSSLRSEDTAVYYCARDYYGNSFAYWGQGTLVTVSS
VL: DIVMTQSPDSLAVSLGERATMSCKSSQSLLNSGNQKNYLTWYQQKPGQPPKLLIYWASTRESGVPDRFSGSGSGTDFTLTISSLQAEDVAVYYCQNGYRFPFTFGQGTKLEIKR
notes: humanized, human IgG1/kappa constant regions
B13: humanized 246B5F2-VH1.1 + VL1 (antibody, human IgG1, kappa, V domains shown)
VH: EVQLLESGGGLVQPGGSLRLSCAASEFTFSNYAMSWVRQAPGKRLEWVATISSGRSSTYYPDSVKGRFTISRDNSKNTLYLQMNSLRAEDTAVYYCAGLGRGNAMEYWGQGTLVTVSS
VL: B12 VL with M21I, S22N, G97A, R99S, F100Y, Q106G
notes: as for B12
B14: humanized 370E2B12C3-VH3 + VL1 (antibody, human IgG1, kappa, V domains shown)
VH: QVQLVESGGGVVQPGRSLRLSCAASGFSLTTYGVHWVRQAPGKGLEWVAVIWAGGSTNYNSALMSRFTISRDNSKNTLYLQMNSLRAEDTAVYYCARAAYYGNGLDYWGQGTMVTVSS
VL: B12 VL with M21I, S22N, S28T, R60G, G97A, R99F, F100Y, Q106G
notes: as for B12
B15: humanized 412B6E4-VH1.1 + VL1.1 (antibody, human IgG1, kappa, V domains shown)
VH: EVQLVESGGGLVQPGGSLRLSCAASGFTFSSFGVHWVRQAPGKGLEWVAYISSGSSTIYYAHSVKGRFTISRDNAKNSLFLQMNSLRAEDTAVYYCARFYYGNSFAYWGQGTLVTVSS
VL: B12 VL with L52M, G97A, R99T, F100Y, F102L
notes: as for B12
B16: humanized 410H6H3-VH1.2 + VL1.1 (antibody, human IgG1, kappa, V domains shown)
VH: EVQLVESGGGLVQPGGSRRLSCAASGFTFSSSGMHWVRQAPGKGLEWVSYISSGSNTIYYADTLKGRFTISRDNAKNTLFLQMNSLRAEDTAVYYCARIYYGNSFVYWGQGTLVTVSS
VL: B12 VL with L52M, G97N, R99Y, F100Y, F102L
notes: as for B12
B17: humanized 412B6E4-VH1 + VL1.1 (antibody, human IgG1, kappa, V domains shown)
VH: B15 VH with A49S, F80Y
VL: B12 VL with L52M, G97A, R99T, F100Y, F102L
notes: as for B12
B18: humanized 246B5F2-VH1.1 + VL1.1 (antibody, human IgG1, kappa, V domains shown)
VH: B13 VH
VL: B12 VL with M21I, S69T, G97A, R99S, F100Y, Q106G
notes: as for B12
B19: humanized 246B5F2-VH1 + VL1 (antibody, human IgG1, kappa, V domains shown)
VH: B13 VH with R44G, A49S, G98K
VL: B12 VL with M21I, S22N, G97A, R99S, F100Y, Q106G
notes: as for B12
B20: humanized 232C5E3-VL1.1 + VH1.1 (antibody, human IgG1, kappa, V domains shown)
VH: B12 VH with M48I, V68A, R72A, Y95F
VL: B12 VL
notes: as for B12
B21: humanized 237D2A4-VH1.2 + VL1 (antibody, human IgG1, kappa, V domains shown)
VH: QVQLQESGPGLVKPSETLSLTCTVSGFSLTSYGVSWIRQPPGKGLEWIGVIWGDGSTNYHSTLISRVTISKDTSKNQVFLKLSSVTAADTAVYYCAKAGRGNALDYWGQGTLVTVSS
VL: B12 VL with M21I, S22N, G97D, R99S, F102L, Q106G
notes: as for B12
B22: humanized 232C5E3-VL1.1 + VH1.2 (antibody, human IgG1, kappa, V domains shown)
VH: B12 VH with V37I, R38K, R72A, Y95F
VL: B12 VL
notes: as for B12
B23: humanized 412B6E4-VH1.2 + VL1.1 (antibody, human IgG1, kappa, V domains shown)
VH: B15 VH with L18R, A49S, S78T
VL: B12 VL with L52M, G97A, R99T, F100Y, F102L
notes: as for B12
B24: humanized 410H6H3-VH1.2 + VL1 (antibody, human IgG1, kappa, V domains shown)
VH: B16 VH
VL: B12 VL with M21I, S22N, G97N, R99Y, F100Y, F102L
notes: as for B12
B25: humanized 410H6H3-VH1 + VL1 (antibody, human IgG1, kappa, V domains shown)
VH: B16 VH with R18L, T78S, F80Y
VL: B12 VL with M21I, S22N, G97N, R99Y, F100Y, F102L
notes: as for B12
B26: humanized 370E2B12C3-VH3 + VL2 (antibody, human IgG1, kappa, V domains shown)
VH: B14 VH
VL: DIVMTQSPLSLPVTPGEPASISCKSSQTLLNSGNQKNYLTWYLQKPGQSPQLLIYWASTGESGVPDRFSGSGSGTDFTLKISRVEAEDVGVYYCQNAYFYPFTFGGGTKVEIKR
notes: as for B12
B27: humanized 370E2B12C3-VH3 + VL3 (antibody, human IgG1, kappa, V domains shown)
VH: B14 VH
VL: B26 VL with I2V, P15L, E17Q, Y42F, L43Q, K45R, Q51R, L52R
notes: as for B12

The binders below were run against human Claudin18.2 (human) (assay: cell-based or functional assay).

CDC % Relative activity [%] | CDC EC50 [µg/mL] | Binder
793 | 0.34 | B1
1040 | 0.261 | B2
937 | 0.288 | B3
760 | 0.302 | B4
875 | 0.309 | B5
1320 | 0.205 | B6
642 | 0.358 | B7

Each binder was assayed against T1, human Claudin18.2 (human) (assay: FACS, Claudin18.2-HEK293 cells).
T1 construct: also called CLDN18.2
Procedure: (§1) The binding of chimeric antibodies to Claudin18.2 expressed on HEK293 cells was determine by FACS analysis. Briefly, HEK293 cells expressing human Claudin18.2 as prepared in the foregoing Example were harvested and incubated with anti-Claudin18.2 mAbs at 4° C. for 40 min, followed by fluorophore (iFluor 647)-labeled goat […] IgG (H+L) secondary antibodies at 4° C. for 0.5 hour. The samples were then analyzed by flow cytometry.

EC50 [nM] | Binder
1.36 | B8
0.796 | B1
1.3 | B9
0.551 | B2
0.798 | B3
2.6 | B10
0.742 | B4
1.53 | B11
1.02 | B5
0.61 | B6
1.17 | B7

Each binder was assayed against T1, human Claudin18.2 (assay: cell-based or functional assay).

ADCC % Relative activity [%] | ADCC EC50 [µg/mL] | Binder
83.6 | 0.0291 | B1
66.4 | 0.0367 | B2
85.9 | 0.0357 | B3
55.8 | 0.0556 | B4
109 | 0.0281 | B5
131 | 0.0276 | B6
68.2 | 0.0454 | B7

Target: T1, human Claudin18.2
Test: FACS, Claudin18.2-HEK293 cells
Remark: another data set of the same source
Procedure: as §1
After initial screening of cell binding with transfected supernatants, the binding pattern of chimeric and up to 3 humanized antibodies on Claudin18.2 expressed on HEK293 cells were plotted with antibody in 3× serial dilutions, starting concentration of 45 μg/ml, following the protocol described in Example 3.

EC50 [µg/mL] | Span | Binder
0.304 | 58000 | B12
0.104 | 10900 | B13
0.826 | 4650 | B14
0.571 | 71300 | B15
0.555 | 64500 | B16
0.373 | 65900 | B17
0.283 | 14700 | B18
0.16 | 14200 | B19
0.224 | 54900 | B20
0.261 | 15700 | B21
0.212 | 57900 | B22
0.512 | 70300 | B23
0.372 | 73000 | B24
0.33 | 72100 | B25
0.794 | 4300 | B26
1.17 | 5520 | B27
